Results published in publication PMC7465229.

tested on: H5N1 influenza A virus, whole virion (hemagglutinin presumed target) (Influenza A virus H5N1 (A/wild duck/Korea/SNU50-5/2011)); experiment: rGO fluorescence recovery; conditions: assay buffer, pH and temperature not stated ([…]

Sequence	Kd
ATGCGGATCCCGCGCGCGACCGTGTCAGCGGGGACTAGCGGTGTAGCGCGAAGCTTGCGC [HBA1]	70 nM
ATGCGGATCCCGCGCGGGTCTGAGGAGTGCGCGGTGCCAGTGAGTGCGCGAAGCTTGCGC [HBA2]	122 nM
CCGCGCGGGTCTGAGGAGTGCGCGG [tHBA2]	1320 nM
GACCGTGTCAGCGGGGACTAGCGGTG [tHBA1]	492 nM
